Assay results reported in patent US20220389118A1 (Chugai, published 2022).
Substitutions are numbered along the chain they refer to. Each block holds one binder with its values, some of them ahead of it.

What was measured:
[1] = biological target: T1, human FcγRIIb extracellular domain with C-terminal His tag (human, UniProt P31994 43-217); experiment: SPR (Biacore), ratio of KDs
T1 construct: extracellular domain
T1 sequence (looked up): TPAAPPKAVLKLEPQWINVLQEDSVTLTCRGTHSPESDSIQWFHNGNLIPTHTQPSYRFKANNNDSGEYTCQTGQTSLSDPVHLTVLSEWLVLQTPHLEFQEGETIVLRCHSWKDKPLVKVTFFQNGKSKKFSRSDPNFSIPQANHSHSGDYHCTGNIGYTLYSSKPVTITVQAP

[2] = biological target: T1, human FcγRIIb extracellular domain with …; experiment: SPR (Biacore)
[3] = biological target: T2, human FcγRIa extracellular domain with C-terminal His tag (human, UniProt P12314 16-292); experiment: SPR (Biacore)
T2 construct: extracellular domain
T2 sequence (P12314 16-292): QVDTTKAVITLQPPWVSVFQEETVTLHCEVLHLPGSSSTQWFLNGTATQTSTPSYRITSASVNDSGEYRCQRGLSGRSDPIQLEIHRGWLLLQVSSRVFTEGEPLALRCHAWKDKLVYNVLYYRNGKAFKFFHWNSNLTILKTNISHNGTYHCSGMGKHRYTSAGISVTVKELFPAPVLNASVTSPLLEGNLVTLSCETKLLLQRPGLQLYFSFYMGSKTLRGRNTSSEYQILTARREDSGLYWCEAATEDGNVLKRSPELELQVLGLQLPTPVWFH

[4] = biological target: T3, human FcγRIIa type R extracellular domain with C-terminal His tag (human, UniProt P12318 34-217); experiment: SPR (Biacore)
T3 construct: extracellular domain; also called FcγRIIaR; FcγRIIa(R)
T3 sequence (looked up): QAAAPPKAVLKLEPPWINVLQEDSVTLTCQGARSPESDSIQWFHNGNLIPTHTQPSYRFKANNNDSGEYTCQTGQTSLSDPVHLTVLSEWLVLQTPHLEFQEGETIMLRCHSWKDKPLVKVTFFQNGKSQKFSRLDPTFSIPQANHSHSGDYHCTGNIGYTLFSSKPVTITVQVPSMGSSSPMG

[5] = biological target: T1, human FcγRIIb extracellular domain with …; experiment: SPR (Biacore), parent IL6R-B3/IL6R-L
[6] = biological target: T3, human FcγRIIa type R extracellular …; experiment: SPR (Biacore), parent IL6R-B3/IL6R-L
[7] = biological target: T4, human FcγRIIb extracellular domain with C-terminal His tag (human, UniProt P31994 43-217); experiment: SPR (Biacore), antibody captured, FcγR as analyte
T4 construct: extracellular domain; also called FcgRIIb
T4 sequence (looked up): T1 sequence (looked up)

KD(IIaH)/KD(IIb) [1]: 375 | KD(IIaR)/KD(IIb) [1]: 17 | Kd [2]: 120 nM | Kd [3]: 10 nM | Kd [4]: 2000 nM | KD(IIb) parent/KD(IIb) altered polypeptide [5]: 25.8 | KD(IIaR) parent/KD(IIaR) altered polypeptide [6]: 0.5
B1: IL6R-BP262/IL6R-L (antibody, human IgG1, kappa)
heavy: QVQLQESGPGLVKPSETLSLTCAVSGHSISHDHAWSWVRQPPGEGLEWIGFISYSGITNYNPSLQGRVTISRDNSKNTLYLQMNSLRAEDTAVYYCARSLARTTAMDYWGEGTLVTVSSASTKGPSVFPLAPSSKSTSGGTAALGCLVKDYFPEPVTVSWNSGALTSGVHTFPAVLQSSGLYSLSSVVTVPSSSLGTQTYICNVNHKPSNTKVDKKVEPKSCDKTHTCPPCPAPELLGDDSVFLFPPKPKDTLMISRTPEVTCVVVDVSEEDGEVKFNWYVDGVEVHNAKTKPREEQYNSTYRVVSVLTVLHQDWLNGKEYKCKVSNKALPAPIEKTISKAKGQPREPQVYTLPPSRDELTKNQVSLTCLVKGFYPSDIAVEWESNGQPENNYKTTPPVLDSDGSFFLYSKLTVDKSRWQQGNVFSCSVMHEALHNHYTQESLSLSP
light: not shown
notes: copies: 2 + 2

Kd [2]: 2.6 nM | Kd [3]: 3.2 nM | Kd [4]: 97 nM
B2: IL6R-BP552/IL6R-L (antibody, human IgG1, kappa)
heavy: B1 heavy with E235D, V266I, S269A, E274D, Y298D, A332R
light: not shown
notes: copies: 2 + 2

KD(IIaH)/KD(IIb) [1]: 444 | KD(IIaR)/KD(IIb) [1]: 29.2 | Kd [2]: 18 nM | Kd [3]: 1.1 nM | Kd [4]: 520 nM | KD(IIb) parent/KD(IIb) altered polypeptide [5]: 174 | KD(IIaR) parent/KD(IIaR) altered polypeptide [6]: 2.1
B3: IL6R-BP509/IL6R-L (antibody, human IgG1, kappa)
heavy: B1 heavy with E235D, V266I, S269A, E274D, Y298D
light: not shown
notes: copies: 2 + 2

KD(IIb) of parent polypeptide/KD(IIb) of altered polypeptide [7]: 9.7 fold vs IL6R-B3/IL6R-L
B4: IL6R-BP112/IL6R-L (antibody, human IgG1, kappa)
heavy: B1 heavy with D239G, E270H
light: not shown
notes: IgG1 type

Kd [2]: 6.9 nM | Kd [3]: 29 nM | Kd [4]: 270 nM
B5: IL6R-BP537/IL6R-L (antibody, human IgG1, kappa)
heavy: B1 heavy with V266I, S269G, A332R
light: not shown
notes: copies: 2 + 2

KD(IIaH)/KD(IIb) [1]: 350 | KD(IIaR)/KD(IIb) [1]: 20.5 | Kd [2]: 19 nM | Kd [3]: 1 nM | Kd [4]: 400 nM | KD(IIb) parent/KD(IIb) altered polypeptide [5]: 160 | KD(IIaR) parent/KD(IIaR) altered polypeptide [6]: 2.8
B6: IL6R-BP481/IL6R-L (antibody, human IgG1, kappa)
heavy: B1 heavy with E235D, V266I, S269A
light: not shown
notes: copies: 2 + 2

KD(IIaH)/KD(IIb) [1]: 637 | KD(IIaR)/KD(IIb) [1]: 19.6 | Kd [2]: 110 nM | Kd [3]: 14 nM | Kd [4]: 2200 nM | KD(IIb) parent/KD(IIb) altered polypeptide [5]: 27.4 | KD(IIaR) parent/KD(IIaR) altered polypeptide [6]: 0.5
B7: IL6R-BP269/IL6R-L (antibody, human IgG1, kappa)
heavy: B1 heavy with Y298D
light: not shown
notes: copies: 2 + 2

KD(IIaH)/KD(IIb) [1]: 696 | KD(IIaR)/KD(IIb) [1]: 35.9 | Kd [2]: 16 nM | Kd [3]: 18 nM | Kd [4]: 570 nM | KD(IIb) parent/KD(IIb) altered polypeptide [5]: 196 | KD(IIaR) parent/KD(IIaR) altered polypeptide [6]: 1.9
B8: IL6R-BP549/IL6R-L (antibody, human IgG1, kappa)
heavy: B1 heavy with S269G, A332R
light: not shown
notes: copies: 2 + 2

Kd [2]: 3.8 nM | Kd [3]: 9.4 nM | Kd [4]: 120 nM
B9: IL6R-BP531/IL6R-L (antibody, human IgG1, kappa)
heavy: B1 heavy with E235D, V266I, S269G, Y298D, A332R, P398M
light: not shown
notes: copies: 2 + 2

KD(IIaH)/KD(IIb) [1]: 821 | KD(IIaR)/KD(IIb) [1]: 38.6 | Kd [2]: 6.6 nM | Kd [3]: 3.9 nM | Kd [4]: 250 nM | KD(IIb) parent/KD(IIb) altered polypeptide [5]: 471 | KD(IIaR) parent/KD(IIaR) altered polypeptide [6]: 4.3
B10: IL6R-BP494/IL6R-L (antibody, human IgG1, kappa)
heavy: B1 heavy with S269A, Y298D, A332R
light: not shown
notes: copies: 2 + 2

Kd [2]: 3 nM | Kd [3]: 9.3 nM | Kd [4]: 91 nM
B11: IL6R-BP534/IL6R-L (antibody, human IgG1, kappa)
heavy: B1 heavy with E235D, V266I, Y298D, A332R, P398L
light: not shown
notes: copies: 2 + 2

KD(IIaH)/KD(IIb) [1]: 241 | KD(IIaR)/KD(IIb) [1]: 17.1 | Kd [2]: 46 nM | Kd [3]: 0.82 nM | Kd [4]: 780 nM | KD(IIb) parent/KD(IIb) altered polypeptide [5]: 67.8 | KD(IIaR) parent/KD(IIaR) altered polypeptide [6]: 1.4
B12: IL6R-BP484/IL6R-L (antibody, human IgG1, kappa)
heavy: B1 heavy with E235D, S269A, E271D
light: not shown
notes: copies: 2 + 2

KD(IIb) of parent polypeptide/KD(IIb) of altered polypeptide [7]: 2.6 fold vs IL6R-B3/IL6R-L
B13: IL6R-2B169/IL6R-L (antibody, human IgG1, kappa)
heavy: B1 heavy with D239G, E270H, G273P, V325I
light: not shown
notes: IgG1 type

Kd [2]: 4.1 nM | Kd [3]: 9.4 nM | Kd [4]: 160 nM
B14: IL6R-BP555/IL6R-L (antibody, human IgG1, kappa)
heavy: B1 heavy with V266I, S269A, E274D, Y298D, A332R
light: not shown
notes: copies: 2 + 2

KD(IIaH)/KD(IIb) [1]: 658 | KD(IIaR)/KD(IIb) [1]: 18.5 | Kd [2]: 24 nM | Kd [3]: 1.4 nM | Kd [4]: 450 nM | KD(IIb) parent/KD(IIb) altered polypeptide [5]: 128 | KD(IIaR) parent/KD(IIaR) altered polypeptide [6]: 2.4
B15: IL6R-BP504/IL6R-L (antibody, human IgG1, kappa)
heavy: B1 heavy with E235D, V266I, S269A, E274P
light: not shown
notes: copies: 2 + 2

KD(IIb) of parent polypeptide/KD(IIb) of altered polypeptide [7]: 3.3 fold vs IL6R-B3/IL6R-L
B16: IL6R-2B002/IL6R-L (antibody, human IgG1, kappa)
heavy: B1 heavy with E235D, D239G, E270H, G273P
light: not shown
notes: IgG1 type

Kd [2]: 4 nM | Kd [3]: 11 nM | Kd [4]: 92 nM
B17: IL6R-BP535/IL6R-L (antibody, human IgG1, kappa)
heavy: B1 heavy with E235D, V266I, S269G, Y298D, A329G, A332R, P398M
light: not shown
notes: copies: 2 + 2

KD(IIaH)/KD(IIb) [1]: 268 | KD(IIaR)/KD(IIb) [1]: 16.1 | Kd [2]: 56 nM | Kd [3]: 5.3 nM | Kd [4]: 900 nM | KD(IIb) parent/KD(IIb) altered polypeptide [5]: 55.5 | KD(IIaR) parent/KD(IIaR) altered polypeptide [6]: 1.2
B18: IL6R-BP479/IL6R-L (antibody, human IgG1, kappa)
heavy: B1 heavy with E235D, V266I, V268L, S269A
light: not shown
notes: copies: 2 + 2

KD(IIb) of parent polypeptide/KD(IIb) of altered polypeptide [7]: 2.1 fold vs IL6R-B3/IL6R-L
B19: IL6R-2B128/IL6R-L (antibody, human IgG1, kappa)
heavy: B1 heavy with D239G, E270H, G273P, Y298D
light: not shown
notes: IgG1 type

KD(IIb) of parent polypeptide/KD(IIb) of altered polypeptide [7]: 2.1 fold vs IL6R-B3/IL6R-L
B20: IL6R-BP110/IL6R-L (antibody, human IgG1, kappa)
heavy: B1 heavy with D239G, E270N, G273P
light: not shown
notes: IgG1 type

KD(IIaH)/KD(IIb) [1]: 514 | KD(IIaR)/KD(IIb) [1]: 20 | Kd [2]: 21 nM | Kd [3]: 1.1 nM | Kd [4]: 430 nM | KD(IIb) parent/KD(IIb) altered polypeptide [5]: 145 | KD(IIaR) parent/KD(IIaR) altered polypeptide [6]: 2.6
B21: IL6R-BP505/IL6R-L (antibody, human IgG1, kappa)
heavy: B1 heavy with E235D, V266I, S269A, E274D
light: not shown
notes: copies: 2 + 2

Kd [2]: 3.2 nM | Kd [3]: 12 nM | Kd [4]: 94 nM
B22: IL6R-BP532/IL6R-L (antibody, human IgG1, kappa)
heavy: B1 heavy with E235D, V266I, Y298D, A332R, P398M
light: not shown
notes: copies: 2 + 2

KD(IIaH)/KD(IIb) [1]: 231 | KD(IIaR)/KD(IIb) [1]: 16.8 | Kd [2]: 78 nM | Kd [3]: 1.3 nM | Kd [4]: 1300 nM | KD(IIb) parent/KD(IIb) altered polypeptide [5]: 39.7 | KD(IIaR) parent/KD(IIaR) altered polypeptide [6]: 0.8
B23: IL6R-BP483/IL6R-L (antibody, human IgG1, kappa)
heavy: B1 heavy with E235D, V268L, S269A
light: not shown
notes: copies: 2 + 2

KD(IIaH)/KD(IIb) [1]: 962 | KD(IIaR)/KD(IIb) [1]: 26 | Kd [2]: 21 nM | Kd [3]: 1.4 nM | Kd [4]: 540 nM | KD(IIb) parent/KD(IIb) altered polypeptide [5]: 149 | KD(IIaR) parent/KD(IIaR) altered polypeptide [6]: 2
B24: IL6R-BP508/IL6R-L (antibody, human IgG1, kappa)
heavy: B1 heavy with E235D, V266I, S269A, E274P, Y298D
light: not shown
notes: copies: 2 + 2

Kd [2]: 3.1 nM | Kd [3]: 3.4 nM | Kd [4]: 86 nM
B25: IL6R-BP553/IL6R-L (antibody, human IgG1, kappa)
heavy: B1 heavy with E235D, V266I, S269A, E274D, A332R
light: not shown
notes: copies: 2 + 2
